PMC6356842 (Toxins, 2019)

Tests used:
Settings in all cases: both partners purified
[1] = biological target: T1, CeII9 toxin (Centruroides elegans)
T1 construct: also called Cell9; source: purified from scorpion venom
T1 chain: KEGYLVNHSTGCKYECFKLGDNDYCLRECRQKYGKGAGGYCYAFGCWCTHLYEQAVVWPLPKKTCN

[2] = biological target: T2, Css2 toxin (Centruroides suffusus)
T2 construct: source: purified from scorpion venom
T2 chain: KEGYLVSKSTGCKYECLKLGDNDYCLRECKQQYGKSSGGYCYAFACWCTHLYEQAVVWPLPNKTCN

[3] = biological target: T3, Cn2 toxin (Centruroides noxius); assay: SPR
T3 construct: source: purified from scorpion venom

[4] = biological target: T4, Cll2 toxin (Centruroides limpidus); assay: SPR
T4 construct: source: purified from scorpion venom
T4 chain: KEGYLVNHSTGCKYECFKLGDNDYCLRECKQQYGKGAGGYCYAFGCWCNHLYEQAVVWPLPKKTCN

[5] = biological target: T5, Cll1 toxin (Centruroides limpidus); assay: SPR
T5 construct: source: purified from scorpion venom
T5 chain: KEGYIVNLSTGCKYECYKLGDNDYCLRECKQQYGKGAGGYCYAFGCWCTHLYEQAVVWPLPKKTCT

[6] = biological target: T6, Ct1a toxin (Centruroides tecomanus); assay: SPR
T6 construct: source: purified from scorpion venom
T6 chain: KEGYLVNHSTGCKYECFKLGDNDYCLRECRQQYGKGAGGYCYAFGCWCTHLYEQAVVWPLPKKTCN

[7] = biological target: T7, Css4 toxin (Centruroides suffusus, UniProt P60266); assay: SPR
T7 construct: source: purified from scorpion venom

[8] = biological target: T3, Cn2 toxin; assay: SPR; remark: listed apart in the source
[9] = biological target: T2, Css2 toxin; assay: SPR

B1: scFv 10FG2 (scFv, V domains shown)
VH: QVNLRESGGGLVQPGGSLRLSCAASGFSFGSYGMHWVRQAPGKGLEWVAVISYGGGSKYYADSVKGRFTISRDNSKNTLYLQMNSLRAEDTAVYYCAKDARDCLLCSDWTFDLWGRGTLVTVSS
VL: NFMLTQPHSASGTPGQRVTISCSGSSSNIGSNTVNWYRHLPGSAPELLIGSHNQRPSGVPDRFSGSKSGTSASLAISGLQSEDEADYYCAAWDDSTLGYVFGTGTKLTVL
notes: also called 10F5; scFv 10F5
With B1 the Kd [1] was 6.1 nM, the koff [1] was 0.000925 s⁻¹ and the kon [1] was 150000 M⁻¹ s⁻¹. For the same binder, the Kd [2] was 2.75 nM, the koff [2] was 0.00055 s⁻¹ and the kon [2] was 195000 M⁻¹ s⁻¹. The Kd [3] was 0.7 nM, the “TR (time of residence)” value [3] was 163 min and the koff [3] was 0.000102 s⁻¹. For the same binder, the kon [3] was 150000 M⁻¹ s⁻¹, the Kd [4] was 4.2 nM and the “TR (time of residence)” value [4] was 18.5 min. It also gave a koff [4] of 0.0009 s⁻¹, a kon [4] of 220000 M⁻¹ s⁻¹ and a Kd [5] of 0.23 nM. For the same binder, the “TR (time of residence)” value [5] was 264 min, the koff [5] was 6.3e-05 s⁻¹ and the kon [5] was 265000 M⁻¹ s⁻¹. For the same binder, the Kd [6] was 8 nM, the “TR (time of residence)” value [6] was 16.7 min and the koff [6] was 0.001 s⁻¹. For the same binder, the kon [6] was 170000 M⁻¹ s⁻¹ and the binding result [7] was “binds”.

B2: scFv 10F1 (scFv, V domains shown)
VH: QVNLRESGGGLVQPGGSLRLSCAASGFSFGSYGMHWVRQAPGKGLEWVAVISYGGGSKYYADSVKGRFTISRDNSKNTLYLQMNSLRAEDTAVYYCAKDARDCLLCADWTFDLWGRGTLVTVSS
VL: NFMLTQPHSASGTPGQRVTISCSGISSNIGSNTVNWYRHLPGSAPELLIGSHNQRPSGVPDRFSGSKSGTSASLAISGLQSEDEADYYCAAWDDSTLGYVFGTGTKLTVL
notes: VH, linker (G125 to S139), VL on one chain; numbers run through the whole scFv; 10F with A204G; source: expression vector pSyn1, purified (Ni2+-NTA, Superdex 75 gel filtration), monomer
B2: binds [8]; binds [7]; binds [9].

B3: scFv 10F4 (scFv, V domains shown)
VH: QVNLRESGGGLVQPGGSLRLSCAASGFSFGSYGMHWVRQAPGKGLEWVAVISYGGGSKYYADSVKGRFTISRDNSKNTLYLQMNSLRAEDTAVYYCAKDARDCLLCSDWNFDLWGRGTLVTVSS
VL: NFMLTQPHSASGTPGQRVTISCSGSSSNIGSNTVNWYRHLPGSAPELLIGSHNQRPSGVPDRFSGSKSGTSASLAISGLQSEDEADYYCAAWDDSTLGYVFGTGTKLTVL
B3: binds [8]; binds [7]; binds [9].

B4: scFv 10F (scFv, V domains shown)
VH: QVNLRESGGGLVQPGGSLRLSCAASGFSFGSYGMHWVRQAPGKGLEWVAVISYGGGSKYYADSVKGRFTISRDNSKNTLYLQMNSLRAEDTAVYYCAKDARDCLLCADWTFDLWGRGTLVTVSS
VL: NFMLTQPHSASGTPGQRVTISCSGISSNIGSNTVNWYRHLPGSAPELLIGSHNQRPSGVPDRFSASKSGTSASLAISGLQSEDEADYYCAAWDDSTLGYVFGTGTKLTVL
B4: binds [8].
